Test: yeast display, Sf9 membrane polyspecificity reagent, FACS + sequencing; frameworks hold sequencing errors
Method in brief: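 Using colony PCR, genes from sorted yeast display clones were amplified, then sequenced on MiSeq at 2 × 250 and filtered by CDR length. The clones had been stained with 10% biotinylated, detergent-solubilized Sf9 membrane reagent for 1 hour at 4 °C and sorted by FACS into low and high (top ~1%) gates on anti-HA and streptavidin fluorescence. Polyreactivity labels come from the gate of origin.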

| Sequence | polyreactivity (PSR sort gate) |
| --- | --- |
| QVQLVESGGGLVQAGGSLRLSCAASGRIFKRYAMGWYRQAPGKERELVAAITRGGSTNYADSVKGRFTISRDNAKNSVYLQMYSLKPEYTAVYYCAATTSRPYRSRYYYWGQGTQVTVSS | high polyreactivity |
| QVQLVESGGGLVQAGGSLRLSCAASGRIFKRYTLGWYRPAPAKERELVAAITKRADRTNYADSVKGRFTISRDNAKNTVYLQMNSLKPEDTAVYDCNAEGQNDHPSNGYISYKYDYWGQGTQVTVSS | low polyreactivity |
| QVQLVESGGGLVQAGGSLRLSCAASGRIFKRYVMGWYRQAPGKERELVSAISVRGASTYYADSVKGRFTISRDNAKNTVYLQMNSLKPEDTAVYYCATAGYRLLDYWGQGTQVTVSS | high polyreactivity |
| QVQLVESGGGLVQAGGSLRLSCAASGRIFKSYAMGGYRHAPGKERELVAAISSGDDTYYADSVKGRFTISRDNAKNTVYLQMNSLKQEDTAVYYCAADYWGWIYLYGDYLVDYWGQGTQVTVSS | low polyreactivity |
| QVQLVESGGGLVQAGGSLRLSCAASGRIFKSYAMGWYRQAPGKERELVAAISRSGGRTYYADSVKGRFTISRDNAKNTVYLQMNSLKPEDTAVYYCAATTFVAPYLGQGTQVTVSS | low polyreactivity |
| QVQLVESGGGLVQAGGSLRLSCAASGRIFKSYAMGWYRQAPGKERELVAAISSGDDTYYADSVKGRFTISRDNAKNTVYLQMNSLKPEDTAVYYCAADYWGWLYLYGDYLVDYWGQGTQVTVSS | low polyreactivity |
| QVQLVESGGGLVQAGGSLRLSCAASGRIFKSYAMGWYRQAPGKERELVAGITSGGGTYYADSLKGRFTISRDNAKTTVYLQMNSLKPEDTPVYYCATRTYRESTYDYWGQGTQVTVSS | high polyreactivity |
| QVQLVESGGGLVQAGGSLRLSCAASGRIFKSYAMGWYRQAPGKERELVASITWSGGRTYYADSVKGRFTISRDNAKNTVYLQMNSLIPEDTAVYYCAARTYSYGSILKYYYWGQGTQVTVSS | high polyreactivity |
| QVQLVESGGGLVQAGGSLRLSCAASGRIFKTYAMGWYRPAPGKERELVAAITASGGRTYYADSVKGRFTISRDNAKNTVYLQMNSLKPEDTAVYYCAKRPSYYARNSAYAYLSYGYWGQGTQVTVSS | low polyreactivity |
| QVQLVESGGGLVQAGGSLRLSCAASGRIFKVNTMGWYRQAPGKVRELVASIRGGGSTNYADSVKGRFTISRDNAKNTVYLQMNSLKPEDTAVYYCAAGTSKPTPIYGYWGQGTQVTGSS | low polyreactivity |
| QVQLVESGGGLVQAGGSLRLSCAASGRIFKVYAMGWYRQAPGKERELVATISRGGSTYYADSVKGRFTISRDNAKNTVYLQMNSLKPEDTAVYYCAKQRERYYWFGAWSYDYWGQGTQVTVSS | low polyreactivity |
| QVQLVESGGGLVQAGGSLRLSCAASGRIFKVYAMGWYRQAPGKERELVAVITGGGSTNYADSVKGRFTISRDNAKNTVYLQMNSLKPEDTAVYYCATEGYGHGGETDGGVYSDLGYWGQGTQVTVSS | low polyreactivity |
| QVQLVESGGGLVQAGGSLRLSCAASGRIFKWNAMGWYRQAPGKERELVAAIRWSGTSTYADSVKGRFTISRDNAKNTVYLQMNSLKPEDTAVYYCAASKRYTVGVRAFGKHDYWGQGTQVTVSS | low polyreactivity |
| QVQLVESGGGLVQAGGSLRLSCAASGRIFKWNAMGWYRQAPGKERELVAAITYRDDTTYYADSVKGRFTISRDNAKNTVYLQMNSLKPEDTAVYYCNAAWRPCRPFRGFTEGEYDYWGQGTQVTVSS | low polyreactivity |
| QVQLVESGGGLVQAGGSLRLSCAASGRIFKWYAMGWYRQAPGKERELVAAITSGGGSTYYADSVKGRFTISRDNAKNTVYLQMNSLKPEDTAVYYCAVKGYRRWGYDYWGQGTQVTVSS | high polyreactivity |
| QVQLVESGGGLVQAGGSLRLSCAASGRIFKYNAMGWYRQAPGKERELLAAITRGGSTNYADSVKGRFTISRDNAKNTVYLQMNSLKPEDTAVYYCAALRSRYGRDMDYWGQGTQVTVSS | high polyreactivity |
| QVQLVESGGGLVQAGGSLRLSCAASGRIFKYYAMGGYRQAPGKERELVAAISGSGGSTFYADSVKGRFTISRDNAKNTVYLQMNSLKPEDSALYYCNADEVVWGYNYWGQVTQVTVSS | low polyreactivity |
| QVQLVESGGGLVQAGGSLRLSCAASGRIFKYYAMGWSRQAPGKERELVPAINRDGGRTYYADSVKGRFTISRDNAKNTVYLQMNSLTPEETAVYYCAASYGYVYTTSLDYWGQGTQVTVSS | low polyreactivity |
| QVQLVESGGGLVQAGGSLRLSCAASGRIFLFYAMGWYRTAPGKERELVAGIRSGGSTNYADSVKGRFTISRDNAKNTVYLQMNSLKQEDTAVYYSAAASYFVYPRLEGYWGQGTQVTVSS | low polyreactivity |
| QVQLVESGGGLVQAGGSLRLSCAASGRIFLGNALGWYRQPPGNERELVAAITYSGRSTYYADSVKGRFTISRDHAKNTVYLQMNSLKPEDTAVYFCAARQYWTTDLPFQRYYYWGQGTQVTVSS | low polyreactivity |
| QVQLVESGGGLVQAGGSLRLSCAASGRIFLGNAMGWYRQAPGKERDLVAAITNGGGSTYYADSVKGRFTISRDNAKNTVYLQMNSLKPEDTAVYYCARGYKKSVQRFEYWGQGTQVTVSS | high polyreactivity |
| QVQLVESGGGLVQAGGSLRLSCAASGRIFLGYAMGWYRQAPGKERELVAAISAGGGSTYYADSVKGRFTISRDTAKNTVYLLMNSLKPEDTAVYYCAARRPHIPVKTYDYWGQGTQVTVSS | high polyreactivity |

| Sequence | polyreactivity (PSR sort gate) |
| --- | --- |
| QVQLVESGGGLVQAGGSLRLSCAASGRIFLGYTMGWYIQAPGKERELVAAISYTGGSTYYADSVKGRFTISRDNAKNSVYLQMNSLKPEDTAVYYCAAGTRFSYYWGQGTQLTVSS | high polyreactivity |
| QVQLVESGGGLVQAGGSLRLSCAASGRIFLINAMGWYRQAPGKERELVAAITGGGGSTYYADSVKGRFTISRDNAKNTVYLQMNSLKPEDTAVYYCAARGTAERDYWGQGTQVTVSS | high polyreactivity |
| QVQLVESGGGLVQAGGSLRLSCAASGRIFLKYAMGWYRQAPGKERELVAAISSSGGSTYYADSVKGRFTISRDNAMNTVYLQMNSLKPEDTAVYYCNALYKRGSSYFIGDGYWGQGTQVTVSS | high polyreactivity |
| QVQLVESGGGLVQAGGSLRLSCAASGRIFLRNAMGWYRQAPGNERELVATITSRGGSTYYADSVKGRFTISRDNAKNTVYLQMNSLKPEDTAVYYSAADPSRYRSFGYVYGGYYYWGQGTQVTVSS | low polyreactivity |
| QVQLVESGGGLVQAGGSLRLSCAASGRIFLRNAMGWYRQEPGKERELVASIDRSGGSTYYADSVKGRFTISRDNAKNTVFLQMNSLKPEDTAVYYCAAAYWYLYYYWGQGTQVTVSS | low polyreactivity |
| QVQLVESGGGLVQAGGSLRLSCAASGRIFLSNAMGWYRQAPGKERELVASITSGGSTNYADSVKGRFTISRDNAKNTVYLQMNSLKPEDTAVYYCAKRYRHSGYFVGFNYWGQGTQVTVSS | high polyreactivity |
| QVQLVESGGGLVQAGGSLRLSCAASGRIFLSYTMGSYRQAPGKERELVAAISRGGRTYYADSVKGRFTISLDNAKNTVYLQMNSLKPEDTAVYYCAKKYGRYGSLRGRTIDDYWGQGTEVTVSS | low polyreactivity |
| QVQLVESGGGLVQAGGSLRLSCAASGRIFLTNAMGWYRQAPGKERELVADITSGGATYYADSVKGRFTISRDNAKNSVYLQMNSLKPVDTAVYYCNADTDRYWPYEYDYWGQGSQVTVSS | low polyreactivity |
| QVQLVESGGGLVQAGGSLRLSCAASGRIFLVNAMGWYRQAPGKERELVAAINFISGSTYYADSVKGRFTISRDNAKNTVYLQMNSLKPEDTAVYYCAAYSYWSYVQRYKLEYDYWGQGTQVTVSS | low polyreactivity |
| QVQLVESGGGLVQAGGSLRLSCAASGRIFLWYAMGWYRQAPGKERELVAAISRTGGSTYYADSVKGRFTISRDNAKNTVYLQMNSLKPEDTAVYFCAAYHSYKTSWPQSGYWGQGTQVTVSS | high polyreactivity |
| QVQLVESGGGLVQAGGSLRLSCAASGRIFLWYAMGWYRQAPGKERELVAAISSGGSTIYADSVKGRFTISRDNAKNTVYLQMNSLKPEDTAVNYCAAFPTQRRHPLVGFNSWGQGTQVTVSS | high polyreactivity |
| QVQLVESGGGLVQAGGSLRLSCAASGRIFLWYAMGWYRQAPGKERELVAAISSNGGSTRYADSVKGRFTFSRDNAKNTVYLQMNSLKPEDTAVYYCNADVHWNRYPYGGNGYGYWGQGTQVTVSS | low polyreactivity |
| QVQLVESGGGLVQAGGSLRLSCAASGRIFLWYAMGWYRQAPGKERELVAGISSGASTYYADSVKGRFTISRDNAKNTVYLQMNSLKPEDTAVYYCAAPYYRLTGWSRYDYWGQGTQVTVSS | high polyreactivity |
| QVQLVESGGGLVQAGGSLRLSCAASGRIFLYYAMGWYRQAPGKERELVAAISFRGGSTYYADSVKGRFTISRDNAKNTVYLQMNSLKPEDTAVYYCNAVRDWGPSQVYDGMDYWGQGTQVTVSS | low polyreactivity |
| QVQLVESGGGLVQAGGSLRLSCAASGRIFLYYAMGWYRQAPGKERELVAAISSGGSTYYADSVKGRFTISRDNAKNTVYLQMNSLKPEDTAVYYCATPSGRWGHYGYWGQGTQVTVSS | low polyreactivity |
| QVQLVESGGGLVQAGGSLRLSCAASGRIFLYYAMGWYRQAPGKERELVAAITSSGGDTYYADSVKGRFTISRDNANNTVYLQMYSLKPEDTAVYYCAAYSWWNEYDYWGQGTQVTVSS | high polyreactivity |
| QVQLVESGGGLVQAGGSLRLSCAASGRIFLYYAMGWYRQAPGKERELVAAITSSGGGTYYADSVKGRFTISRDNAKNTVYLQMNSLKPEDTAVYYCAARRRSQWRYYYWGQGTQVTVSS | high polyreactivity |
| QVQLVESGGGLVQAGGSLRLSCAASGRIFLYYTMGWYRQATWKERELVAAITRSGGSTYYADSVKGRFTISRDNAKNTVYLQMNSLKPEDTAVYYCNRAYVRYVPMNYWGQGTQVTVSS | high polyreactivity |
| QVQLVESGGGLVQAGGSLRLSCAASGRIFNAYAMGWYRQAPGKERELVASISWSGGSTFYADSVKGRFTISRDNAKNTVYLQMNSLKPEDTAVYYCNADRRSSRHWWSITAYEYWGQGTQVTVSS | high polyreactivity |
| QVQLVESGGGLVQAGGSLRLSCAASGRIFNDYAMGWSRQAPGKERELVAVIRRSGVSTYYADSVKGRFTISRDNAKNTVYLQMNSLKPEDTAVYYCAAYGYWGQGTQVTVSS | low polyreactivity |
| QVQLVESGGGLVQAGGSLRLSCAASGRIFNGNAMGWYRQAPGNERELVAAISGSGGSTYYADSVKGRFTISRDNAKNTVYLQMNSLKPEDTAVYYCATKRVVHYNYWGQGTQVTVSS | high polyreactivity |

Source: the nanobody polyreactivity screen of Harvey et al. (2022)
